# Results from patent US9618524B2, “Method, composition, isolation and identification of a plaque particle and related biomarker” (Plaxgen Inc., priority 2012, dated 2017).
# Legend:
# Assay in all cases: Mass spectroscopy proteomics, semi-quantitative binding affinity of serum proteins (plaqueproteome, Table 2)
# Conditions in all cases: higher number = stronger affinity
# [1] = target: T1, alpha-synuclein plaque particles (Homo sapiens, UniProt P37840)
# T1 construct: 140 amino acids polypeptide
# Method in brief: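 AD-subject plasma or serum (800 μL of 50%) mixed with 30 μg preformed alpha-synuclein aggregates for 1 h at 37 °C; Thioflavin S-positive particles isolated by flow sorting. After reduction, acrylamide alkylation and overnight tryptic digestion, serum proteins identified by MS/MS with Sequest and Scaffold.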
# [2] = target: T2, Abeta-42 plaque particles (Homo sapiens, UniProt P05067)
# T2 construct: Abeta 1-42
# Method in brief: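 AD patient serum or plasma (50% in PBS) was incubated with Abeta-42 aggregates (30 μg) for 1 h at 37 °C, then stained with Thioflavin S for 30 min. Labeled particles were FACS-sorted, trypsin/Lys-C digested overnight and analyzed by MS/MS. Sequest searched human UniProt; Scaffold/Protein Prophet validated the identifications.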
# [3] = test system: Tau plaque particles; set-up: species or system human
# Method in brief: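 Synthetic Tau-74 and Tau-275 peptides (1 mg/mL PBS, 37° C, 2 h) aggregated; 30 μg aggregates incubated with 50% serum/plasma 1 h at 37° C, stained with Thioflavin S, and plaque particles sorted by flow cytometry. Bound proteins trypsin-digested and identified by MS/MS against human UniProt.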
# [4] = test system: High Density cholesterol (Chl Large) plaque particles; set-up: species or system human
# Method in brief: (§1)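 Read-out is MS/MS protein identification (Sequest, strict trypsin, 20 ppm parent tolerance; Scaffold probabilities) of serum proteins bound to flow-sorted cholesterol plaque particles. These particles formed when 50% atherosclerotic serum was incubated with 30 μg cholesterol aggregates for 1 hr at 37° C.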
# [5] = test system: Low density cholesterol (Chl small) plaque particles; set-up: species or system human
# Method in brief: as §1
Molecule,Semi-quantitative analysis of proteins binding to different plaque particles: Synuclein [1],Semi-quantitative analysis of proteins binding to different plaque particles: Abeta-42 [2],Semi-quantitative analysis of proteins binding to different plaque particles: Tau [3],Semi-quantitative analysis of proteins binding to different plaque particles: Chl Large [4],Semi-quantitative analysis of proteins binding to different plaque particles: Chl small [5]
Serpin B3 (protein) MNSLSEANTKFMFDLFQQFRKSKENNIFYSPISITSALGMVLLGAKDNTAQQIKKVLHFDQVTENTTGKAATYHVDRSGNVHHQFQKLLTEFNKSTDAYELKIANKLFGEKTYLFLQEYLDAIKKFYQTSVESVDFANAPEESRKKINSWVESQTNEKIKNLIPEGNIGSNTTLVLVNAIYFKGQWEKKFNKEDTKEEKFWPNKNTYKSIQMMRQYTSFHFASLEDVQAKVLEIPYKGKDLSMIVLLPNEIDGLQKLEEKLTAEKLMEWTSLQNMRETRVDLHLPRFKVEESYDLKDTLRTMGMVDIFNGDADLSGMTGSRGLVLSGVLHKAFVEVTEEGAEAAAATAVVGFGSSPTSTNEEFHCNHPFLFFIRQNKTNSILFYGRFSSP,0,2,0,0,0
Immunoglobulin lambda-like polypeptide 1 (protein) LLRPTAASQSRALGPGAPGGSSRSSLRSRWGRFLLQRGSWTGPRCWPRGFQSKHNSVTHVFGSGTQLTVLSQPKATPSVTLFPPSSEELQANKATLVCLMNDFYPGILTVTWKADGTPITQGVEMTTPSKQSNNKYAASSYLSLTPEQWRSRRSYSCQVMHEGSTVEKTVAPAECS,0,0,0,0,1
Thioredoxin (protein) VKQIESKTAFQEALDAAGDKLVVVDFSATWCGPCKMIKPFFHSLSEKYSNVIFLEVDVDDCQDVASECEVKCMPTFQFFKKGQKVGEFSGANKEKLEATINELV,0,2,0,0,0
Isoform 2 of RNA-binding protein 39 (protein) ADDIDIEAMLEAPYKKDENKLSSANGHEERSKKRKKSKSRSRSHERKRSKSKERKRSRDRERKKSKSRERKRSRSKERRRSRSRSRDRRFRGRYRSPYSGPKFNSAIRGKIGLPHSIKLSRRRSRSKSPFRKDKSPVREPIDNLTPEERDARTVFCMQLAARIRPRDLEEFFSTVGKVRDVRMISDRNSRRSKGIAYVEFVDVSSVPLAIGLTGQRVLGVPIIVQASQAEKNRAAAMANNLQKGSAGPMRLYVGSLHFNITEDMLRGIFEPFGRIESIQLMMDSETGRSKGYGFITFSDSECAKKALEQLNGFELAGRPMKVGHVTERTDASSASSFLDSDELERTGIDLGTTGRLQLMARLAEGTGLQIPPAAQQALQMSGSLAFGAVADLQTRLSQQTEASALAAAASVQPLATQCFQLSNMFNPQTEEEVGWDTEIKDDVIEECNKHGGVIHIYVDKNSAQGNVYVKCPSIAAAIAAVNALHGRWFAGKMITAAYVPLPTYHNLFPDSMTATQLLVPSRR,0,2,0,0,0
Selenoprotein P (protein) ESQDQSSLCKQPPAWSIRDQDPMLNSNGSVTVVALLQASUYLCILQASKLEDLRVKLKKEGYSNISYIVVNHQGISSRLKYTHLKNKVSEHIPVYQQEENQTDVWTLLNGSKDDFLIYDRCGRLVYHLGLPFSFLTFPYVEEAIKIAYCEKKCGNCSLTTLKDEDFCKRVSLATVDKTVETPSPHYHHEHHHNHGHQHLGSSELSENQQPGAPNAPTHPAPPGLHHHHKHKGQHRQGHPENRDMPASEDLQDLQKKLCRKRCINQLLCKLPTDSELAPRSUCCHCRHLIFEKTGSAITUQCKENLPSLCSUQGLRAEENITESCQURLPPAAUQISQQLIPTEASASURUKNQAKKUEUPSN,1,0,0,0,0
Isoform 2 of Nucleophosmin (protein) MEDSMDMDMSPLRPQNYLFGCELKADKDYHFKVDNDENEHQLSLRTVSLGAGAKDELHIVEAEAMNYEGSPIKVTLATLKMSVQPTVSLGGFEITPPVVLRLKCGSGPVHISGQHLVAVEEDAESEDEEEEDVKLLSISGKRSAPGGGSKVPQKKVKLAADEDDDDDDEEDDDEDDDDDDFDDEEAEEKAPVKKGQESFKKQEKTPKTPKGPSSVEDIKAKMQASIEKGGSLPKVEAKFINYVKNCFRMTDQEAIQDLWQWRKSL,0,4,0,0,0
Dermcidin (protein) YDPEAASAPGSGNPCHEASAAQKENAGEDPGLARQAPKPRKQRSSLLEKGLDGAKKAVGGLGKLGKDAVEDLESVGKGAVHDVKDVLDSVL,0,2,0,0,0
Serpin B12 (protein) MDSLVTANTKFCFDLFQEIGKDDRHKNIFFSPLSLSAALGMVRLGARSDSAHQIDEVLHFNEFSQNESKEPDPCLKSNKQKAGSLNNESGLVSCYFGQLLSKLDRIKTDYTLSIANRLYGEQEFPICQEYLDGVIQFYHTTIESVDFQKNPEKSRQEINFWVECQSQGKIKELFSKDAINAETVLVLVNAVYFKAKWETYFDHENTVDAPFCLNANENKSVKMMTQKGLYRIGFIEEVKAQILEMRYTKGKLSMFVLLPSHSKDNLKGLEELERKITYEKMVAWSSSENMSEESVVLSFPRFTLEDSYDLNSILQDMGITDIFDETRADLTGISPSPNLYLSKIIHKTFVEVDENGTQAAAATGAVVSERSLRSWVEFNANHPFLFFIRHNKTQTILFYGRVCSP,0,2,0,0,0
Carboxypeptidase N catalytic chain (protein) VTFRHHRYDDLVRTLYKVQNECPGITRVYSIGRSVEGRHLYVLEFSDHPGIHEPLEPEVKYVGNMHGNEALGRELMLQLSEFLCEEFRNRNQRIVQLIQDTRIHILPSMNPDGYEVAAAQGPNKPGYLVGRNNANGVDLNRNFPDLNTYIYYNEKYGGPNHHLPLPDNWKSQVEPETRAVIRWMHSFNFVLSANLHGGAVVANYPYDKSFEHRVRGVRRTASTPTPDDKLFQKLAKVYSYAHGWMFQGWNCGDYFPDGITNGASWYSLSKGMQDFNYLHTNCFEITLELSCDKFPPEEELQREWLGNREALIQFLEQVHQGIKGMVLDENYNNLANAVISVSGINHDVTSGDHGDYFRLLLPGIYTVSATAPGYDPETVTVTVGPAEPTLVNFHLKRSIPQVSPVRRAPSRRHGVRAKVQPQARKKEMEMRQLQRGPA,0,0,1,0,0
Peroxiredoxin-1 (protein) SSGNAKIGHPAPNFKATAVMPDGQFKDISLSDYKGKYVVFFFYPLDFTFVCPTEIIAFSDRAEEFKKLNCQVIGASVDSHFCHLAWVNTPKKQGGLGPMNIPLVSDPKRTIAQDYGVLKADEGISFRGLFIIDDKGILRQITVNDLPVGRSVDETLRLVQAFQFTDKHGEVCPAGWKPGSDTIKPDVQKSKEYFSKQK,0,5,0,0,0
